# Laboratory results: FireProtDB (doi:10.1021/bi051013y)
# B1: wild type, Q56QW9 (protein)
# chain: AYAQWVIILIHNVGQQNVKIKNLNASWGKLYADGDKDTEVPASKYEGMVIAPGDQVQINACGREDAAEGTTGTFDLVDPNDSDKQVRHISWDCPWGTKANSWVVGGSNSKWMIEYTGQNLDSGALGTITVNTLKIGN
# Conditions: Pleurotus ostreatus, Thermal, whole UniProt chain shown
# [1] = pH 6, 25 °C, Absorbance, Carbonate 10 mM, reversible: yes
# [2] = pH 6, Absorbance, Carbonate 10 mM, reversible: yes
# [3] = pH 6, absorbance, HEPES, transition: 2, reversible: YES
# [4] = pH 8, 25 °C, Absorbance, HEPES 10 mM, reversible: yes
# [5] = pH 8, Absorbance, HEPES 10 mM, reversible: yes
# [6] = pH 8, absorbance, HEPES, transition: 2, reversible: YES
# [7] = pH 9, Absorbance, Borate 10 mM, reversible: yes
# [8] = pH 9, absorbance, HEPES, transition: 2, reversible: YES
# [9] = pH 10, 25 °C, Absorbance, Carbonate 10 mM, reversible: yes
# [10] = pH 10, Absorbance, Carbonate 10 mM, reversible: yes
# [11] = pH 10, absorbance, HEPES, transition: 2, reversible: YES
# [12] = pH 11, 25 °C, Absorbance, Carbonate 10 mM, reversible: yes
# [13] = pH 11, Absorbance, Carbonate 10 mM, reversible: yes
protein,measurement,setting,value
B1,heat capacity change of unfolding,[1],2.87 kcal/mol/K
same,unfolding enthalpy (van 't Hoff),[1],62.9 kcal/mol
same,unfolding free energy,[1],7.27 kcal/mol
same,Tm,[2],48.6 °C
same,unfolding enthalpy (van 't Hoff),[2],130 kcal/mol
same,Tm,[3],48.6 °C
same,unfolding enthalpy (van 't Hoff),[3],130 kcal/mol
same,unfolding enthalpy (calorimetric),"pH 6, absorbance, HEPES",62.9 kcal/mol
same,unfolding free energy,"pH 6, absorbance, HEPES",7.27 kcal/mol
same,Tm,"pH 7, absorbance, HEPES, transition: 3, reversible: YES",54.6 °C
same,heat capacity change of unfolding,[4],2.87 kcal/mol/K
same,unfolding enthalpy (van 't Hoff),[4],64.5 kcal/mol
same,unfolding free energy,[4],8.94 kcal/mol
same,Tm,[5],51.2 °C
same,unfolding enthalpy (van 't Hoff),[5],140 kcal/mol
same,Tm,[6],51.2 °C
same,unfolding enthalpy (van 't Hoff),[6],140 kcal/mol
same,unfolding enthalpy (calorimetric),"pH 8, absorbance, HEPES",64.5 kcal/mol
same,unfolding free energy,"pH 8, absorbance, HEPES",8.94 kcal/mol
same,Tm,[7],47.2 °C
same,unfolding enthalpy (van 't Hoff),[7],130 kcal/mol
same,Tm,[8],47.2 °C
same,unfolding enthalpy (van 't Hoff),[8],130 kcal/mol
same,unfolding enthalpy (calorimetric),"pH 9, absorbance, HEPES",66.2 kcal/mol
same,unfolding free energy,"pH 9, absorbance, HEPES",7.05 kcal/mol
same,heat capacity change of unfolding,[9],2.87 kcal/mol/K
same,unfolding enthalpy (van 't Hoff),[9],60.5 kcal/mol
same,unfolding free energy,[9],3.47 kcal/mol
same,Tm,[10],39.4 °C
same,unfolding enthalpy (van 't Hoff),[10],102 kcal/mol
same,Tm,[11],39.4 °C
same,unfolding enthalpy (van 't Hoff),[11],102 kcal/mol
same,unfolding enthalpy (calorimetric),"pH 10, absorbance, HEPES",60.5 kcal/mol
same,unfolding free energy,"pH 10, absorbance, HEPES",3.47 kcal/mol
same,heat capacity change of unfolding,[12],2.87 kcal/mol/K
same,unfolding enthalpy (van 't Hoff),[12],66.4 kcal/mol
same,unfolding free energy,[12],2.32 kcal/mol
same,Tm,[13],34.6 °C
same,unfolding enthalpy (van 't Hoff),[13],93.9 kcal/mol
same,unfolding enthalpy (calorimetric),"pH 11, absorbance, HEPES",66.4 kcal/mol
same,unfolding free energy,"pH 11, absorbance, HEPES",2.32 kcal/mol
